Experimental data as given in article PMC3772097.

System: ORC (origin recognition complex) (Saccharomyces cerevisiae)
Test: EMSA
Conditions: 25 mM Tris-HCl pH 8.0, 5 mM MgCl2, 150 mM KCl, 40 ug BSA, 5% glycerol, 5 mM DTT, 1 ug calf-thymus DNA, 2 mM ATP; 5 pM probe, ORC 0.3-30 nM; 25 C 20 min; 3.5% …

Row | Substance | Kd
1 | ARS105 probe | > 0.419 µM
2 | ARS201 probe | 0.0201 µM
3 | ARS214 probe | 0.0413 µM
4 | ARS219.5 probe | > 0.419 µM
5 | ARS305 probe | 0.0331 µM
6 | ARS317 (HMR-E) probe | 0.00722 µM
7 | ARS416 (ARS1) probe | 0.0351 µM
8 | ARS422 probe | 0.00985 µM
9 | ARS423 probe | 0.00676 µM
10 | ARS428 probe | 0.0916 µM
11 | ARS512 probe | 0.0551 µM
12 | ARS514 probe | 0.00412 µM
13 | ARS516 probe | 0.0278 µM
14 | ARS604 probe | 0.061 µM
15 | ARS716 probe | 0.0392 µM
16 | ARS720 probe | 0.0339 µM
17 | ARS728 probe | 0.00838 µM
18 | ARS818 probe | 0.094 µM
19 | ARS822 probe | 0.26 µM
20 | ARS824 probe | 0.0381 µM
21 | ARS911 probe | 0.0873 µM
22 | ARS920 probe | 0.00865 µM
23 | ARS1004 probe | 0.0923 µM

Row | Substance | Kd
24 | ARS1005 probe | > 0.419 µM
25 | ARS1011 probe | 0.0111 µM
26 | ARS1015 probe | 0.0631 µM
27 | ARS1021 probe | 0.0179 µM
28 | ARS1114 probe | 0.0333 µM
29 | ARS1123 probe | 0.0123 µM
30 | ARS1215 probe | 0.0558 µM
31 | ARS1307 probe | 0.0837 µM
32 | ARS1320 probe | 0.0209 µM
33 | ARS1323 probe | 0.0586 µM
34 | ARS1325 probe | 0.063 µM
35 | ARS1329 probe | 0.0768 µM
36 | ARS1332 probe | 0.0353 µM
37 | ARS1405 probe | 0.0972 µM
38 | ARS1413 probe | 0.419 µM
39 | ARS1420 probe | 0.0178 µM
40 | ARS1513 probe | 0.0563 µM
41 | ARS1521 probe | 0.0901 µM
42 | ARS1528 probe | > 0.419 µM
43 | ARS1529.5 probe | 0.192 µM
44 | ARS1601 probe | 0.0328 µM
45 | ARS1625 probe | 0.00867 µM
46 | ARS1631 probe | 0.0268 µM
